According to patent US20090311265A1:

Experiments:
[1] = target: recombinant HA, subtype H7 (A/Netherlands/219/03 (H7N7)) (influenza A virus A/Netherlands/219/03 (H7N7)); experiment: ELISA, coated HA, IgG 5 µg/ml
[2] = target: recombinant HA, subtype H3 (A/Wyoming/3/2003(H3N2)) (influenza A virus A/Wyoming/3/2003 (H3N2)); experiment: ELISA, coated HA, IgG 5 µg/ml
[3] = target: recombinant HA, subtype H9 (A/Hong Kong/1073/99 (H9N2)) (influenza A virus A/Hong Kong/1073/99 (H9N2)); experiment: ELISA, coated HA, IgG 5 µg/ml
[4] = target: recombinant HA, subtype H5 (A/Vietnam/1203/2004 (H5N1)) (influenza A virus A/Vietnam/1203/2004 (H5N1)) (UniProt Q80A26); experiment: ELISA, coated HA, IgG 5 µg/ml
[5] = target: recombinant HA, subtype H1 (A/New Caledonia/20/99 (H1N1)) (influenza A virus A/New Caledonia/20/99 (H1N1)) (UniProt Q289M7); experiment: ELISA, coated HA, IgG 5 µg/ml
[6] = target: full-length HA from isolate A/Vietnam/1194/2004 (H5N1TV) on PER.C6 cells (influenza A virus A/Vietnam/1194/2004 (H5N1)) (UniProt Q80A26); experiment: flow cytometry, transfected PER.C6 cells, separate experiment
[7] = target: full-length HA from isolate A/Vietnam/1194/2004 (H5N1TV) on PER.C6 cells (influenza A virus A/Vietnam/1194/2004 (H5N1)) (UniProt Q80A26); experiment: flow cytometry, transfected PER.C6 cells

Substance | OD 492 nm [1] | OD 492 nm [2] | OD 492 nm [3] | OD 492 nm [4] | OD 492 nm [5] | flow cytometry signal at 0.1 µg/ml [6] | flow cytometry signal at 1 µg/ml [6] | flow cytometry signal at 10 µg/ml [6] | flow cytometry signal at 0.1 µg/ml [7] | flow cytometry signal at 1 µg/ml [7] | flow cytometry signal at 10 µg/ml [7]
CR6261 (antibody) | 0.31 OD 492 nm |  |  |  |  |  |  |  |  |  | 
CR3014 (antibody) | 0.17 OD 492 nm | 0.07 OD 492 nm | 0.16 OD 492 nm | 0.09 OD 492 nm | 0.08 OD 492 nm | 10.5 | 7.95 | 9.15 | 6.21 | 10 | 13.1
